Tests used:
[1] = target: IL-2Rβ and common γ chain on 32Dβ cells; assay: cell-based or functional assay
[2] = target: IL-2Rα, IL-2Rβ and common γ chain on CTLL-2 cells; assay: cell-based or functional assay
[3] = target: 21t15-TGFRs multi-chain chimeric polypeptide
[4] = target: T1, TF219
T1 chain: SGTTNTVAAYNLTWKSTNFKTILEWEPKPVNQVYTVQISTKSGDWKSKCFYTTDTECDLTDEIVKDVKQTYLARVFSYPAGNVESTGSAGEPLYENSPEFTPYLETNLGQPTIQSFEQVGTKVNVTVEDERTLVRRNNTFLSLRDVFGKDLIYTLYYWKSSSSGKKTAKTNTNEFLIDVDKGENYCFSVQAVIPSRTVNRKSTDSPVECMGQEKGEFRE

[5] = target: 18t15-12s multi-chain chimeric polypeptide
[6] = target: 21t15-7s multi-chain chimeric polypeptide
[7] = target: mouse (m)21t15 multi-chain chimeric polypeptide

With “recombinant IL-15 (from UniProt P40933 49-162) (ligand)” the EC50 of 32Dβ cell proliferation (WST1, absorbance at 450 nM) [1] was 1.6 pM.

For “recombinant IL-2 (from UniProt P60568 21-153) (ligand)”, the EC50 of 32Dβ cell proliferation (WST1, absorbance at 450 nM) [1] was 140 pM and the EC50 of CTLL-2 cell proliferation (WST1, absorbance at 450 nM) [2] was 548 pM.

B1: Factor VIIa (protein)
chain: ANAFLEELRPGSLERECKEEQCSFEEAREIFKDAERTKLFWISYSDGDQCASSPCQNGGSCKDQLQSYICFCLPAFEGRNCETHKDDQLICVNENGGCEQYCSDHTGTKRSCRCHEGYSLLADGVSCTPTVEYPCGKIPILEKRNASKPQGRIVGGKVCPKGECPWQVLLLVNGAQLCGGTLINTIWVVSAAHCFDKIKNWRNLIAVLGEHDLSEHDGDEQSRRVAQVIIPSTYVPGTTNHDIALLRLHQPVVLTDHVVPLCLPERTFSERTLAFVRFSLVSGWGQLLDRGATALELMVLNVPRLMTQDCLQQSRKVGDSPNITEYMFCAGYSDGSKDSCKGDSGGPHATHYRGTWYLTGIVSWGQGCATVGHFGVYTRVSQYIEWLQKLMRSEPRPGVLLRAPFP
B1 was tested, and the “FX activation measured by FXa activity (chromogenic substrate S-2765)” value (shortened to “FX activation measured by FXa activity”) [3] was “TF219 and TF219-containing multi-chain chimeric polypeptides had very low FX activation activity”, the “FX activation measured by FXa activity” value [4] was “TF219 and TF219-containing multi-chain chimeric polypeptides had very low FX activation activity” and the “FX activation measured by FXa activity” value [5] was “TF219 and TF219-containing multi-chain chimeric polypeptides had very low FX activation activity”. The “FX activation measured by FXa activity” value [6] was “TF219 and TF219-containing multi-chain chimeric polypeptides had very low FX activation activity” and the “FX activation measured by FXa activity” value [7] was “TF219 and TF219-containing multi-chain chimeric polypeptides had very low FX activation activity”.

Reference: US20230039157A1
